± gives the uncertainty stated by the source.
Assay: self-splicing fitness, log relative to wild type (ln ratio); higher = more splicing; Tetrahymena group I intron in knt gene, E. coli kanamycin selection, DiMSum; sequences stand for … in CUCUCU…GGAGGGAAAAGUUAUCAGGCAUGCACCUGGUAGCUAGUCUUUAAACCAAUAGAUUGCAUCGGUUUAAAAGGCAAGACCGUCAAAUUGCGGGAAAGGGGUCAACAGCCGUUCAGUACCAAGUCUCAGGGGAAACUUUGAGAUGGCCUUGCAAAGGGUAUGGUAAUAAGCUGACGGACAUGGUCCUAACCACGCAGCCAAGUCCUAAGUCAACAGAUCUUCUGUUGAUAUGGAUGCAGUUCACAGACUAAAUGUCGGUCGGGGAAGAUGUAUUCUUCUCAUAAGAUAUAGUCGGACCUCUCCUUAAUGGGAGCUAGCGGAUGAAGUGAUGCAACACUGGAGCCGCUGGGAACUAAUUUGUAUGCGAAAGUAUAUUGAUUAGUUUUGGAGUACUCGUGGUCG
Procedure, shortened: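 DiMSum derived fitness as the error-weighted combination of fold changes across replicates, kanamycin versus no kanamycin, normalised to wild type. E. coli BL21(DE3) held the library, which randomised all eight P1ex-region intron nucleotides within the knt kanamycin-resistance gene on pET-22b(+). Six replicate transformations grew overnight at 37°C or 30°C on LB agar with or without 25 μg/mL kanamycin, also containing 100 μg/mL carbenicillin, 50 μM IPTG and 0.2% rhamnose, and pooled colonies were amplicon-sequenced on an Illumina HiSeq 2500.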

Sequence	self-splicing fitness (ln) (30 °C)	self-splicing fitness (ln) (37 °C)
AGUGAGCAAUAUUACGCCUA	-3 ± 0.3	-0.802 ± 0.18
AGUGAGCAAUAUUACGCUAU	-3.19 ± 0.23	-2.43 ± 0.42
AGUGAGCAAUAUUACGCUCU		-2.1 ± 0.34
AGUGAGCAAUAUUACGGUAA		-1.43 ± 0.34
AGUGAGCAAUAUUACGGUAU	-3.9 ± 0.23	-2.31 ± 0.24
AGUGAGCAAUAUUACGGUCC	-0.948 ± 0.12	-0.741 ± 0.15
AGUGAGCAAUAUUACGGUCU	-0.639 ± 0.11	-0.463 ± 0.12
AGUGAGCAAUAUUACGUAGA	-3.84 ± 0.23	-3.38 ± 0.32
AGUUAGCAAUAUUACGAACG	-0.391 ± 0.088	0.572 ± 0.14
AGUUAGCAAUAUUACGAAUC	-2.57 ± 0.15	-2.03 ± 0.21
AGUUAGCAAUAUUACGACUG	-0.637 ± 0.13	-0.00615 ± 0.18
AGUUAGCAAUAUUACGAGUC	-2.76 ± 0.33	-3.27 ± 0.47
AGUUAGCAAUAUUACGAGUG	-3.77 ± 0.31	-1.78 ± 0.25
AGUUAGCAAUAUUACGAUAU	-1.55 ± 0.16	-0.311 ± 0.19
AGUUAGCAAUAUUACGAUGA	-1.32 ± 0.18	-0.239 ± 0.16
AGUUAGCAAUAUUACGAUUC	-2.04 ± 0.24	-0.169 ± 0.26
AGUUAGCAAUAUUACGCAGC	-2.29 ± 0.16	-1.18 ± 0.16
AGUUAGCAAUAUUACGCCCU	-0.19 ± 0.12	-0.312 ± 0.15
AGUUAGCAAUAUUACGCGUA	-1.77 ± 0.22	-0.709 ± 0.15
AGUUAGCAAUAUUACGGACG	-0.568 ± 0.16	0.616 ± 0.18
AGUUAGCAAUAUUACGGCCC	-0.803 ± 0.33	
AGUUAGCAAUAUUACGGCGU	-0.00974 ± 0.12	0.274 ± 0.12

Sequence	self-splicing fitness (ln) (30 °C)	self-splicing fitness (ln) (37 °C)
AGUUAGCAAUAUUACGGGCG	-0.303 ± 0.16	-0.0474 ± 0.17
AGUUAGCAAUAUUACGUACU	-1.16 ± 0.13	-0.298 ± 0.12
AGUUAGCAAUAUUACGUCAU	-2.48 ± 0.1	-1.81 ± 0.13
AGUUAGCAAUAUUACGUUAC	-3.26 ± 0.3	-2.69 ± 0.33
AGUUAGCAAUAUUACGUUCC	-0.837 ± 0.14	-0.127 ± 0.18
AGUUAGCAAUAUUACGUUGC	-4.72 ± 0.41	-2.21 ± 0.21
AGUUAGCAAUAUUACGUUGU	-4.38 ± 0.37	-3.36 ± 0.37
AGUUAGCAAUAUUACGUUUA	-2.23 ± 0.21	-1.06 ± 0.21
AUAAAGCAAUAUUACGAACC	-1.28 ± 0.18	-0.77 ± 0.25
AUAAAGCAAUAUUACGACCC	0.352 ± 0.21	0.804 ± 0.26
AUAAAGCAAUAUUACGACCU	-0.0242 ± 0.097	0.381 ± 0.12
AUAAAGCAAUAUUACGAGAA	-2.7 ± 0.19	-1.85 ± 0.23
AUAAAGCAAUAUUACGAGUA	-1.12 ± 0.086	-0.205 ± 0.12
AUAAAGCAAUAUUACGAUGG	-2.15 ± 0.13	-1.03 ± 0.18
AUAAAGCAAUAUUACGAUUA	-0.144 ± 0.073	0.683 ± 0.095
AUAAAGCAAUAUUACGCAAG	-1.19 ± 0.12	-0.742 ± 0.14
AUAAAGCAAUAUUACGCACC	-0.896 ± 0.33	-1.02 ± 0.29
AUAAAGCAAUAUUACGCAGA	-1.87 ± 0.093	-0.796 ± 0.11
AUAAAGCAAUAUUACGCCCU	0.347 ± 0.15	0.95 ± 0.18
AUAAAGCAAUAUUACGCGAC	-1.4 ± 0.13	-0.298 ± 0.13
AUAAAGCAAUAUUACGCUCG	0.147 ± 0.1	0.699 ± 0.13

Reference: the supplement of paper PMC7877785
